Measured values: article PMC5892887

Legend:
[1] = test system: 1-295 (bacteriophage T4); experiment: single-molecule DNA stretching; details: Stopped-flow: 10 mM Tris-HCl pH 8.3, 0.1 mM Na2EDTA, 25 °C, NaCl varied (0.02 M for typical traces); DNA stretching: 0.1 M Na+
[2] = test system: ΔPR201 (bacteriophage T4); experiment: single-molecule DNA stretching; details: Stopped-flow: 10 mM Tris-HCl pH 8.3, 0.1 mM Na2EDTA, 25 °C, NaCl varied (0.02 M for typical traces); DNA stretching: 0.1 M Na+
[3] = test system: *I (gp32 lacking C-domain) (bacteriophage T4); experiment: single-molecule DNA stretching; details: Stopped-flow: 10 mM Tris-HCl pH 8.3, 0.1 mM Na2EDTA, 25 °C, NaCl varied (0.02 M for typical traces); DNA stretching: 0.1 M Na+
[4] = test system: gp32 (full-length gene 32 protein) (bacteriophage T4); experiment: single-molecule DNA stretching; details: Stopped-flow: 10 mM Tris-HCl pH 8.3, 0.1 mM Na2EDTA, 25 °C, NaCl varied (0.02 M for typical traces); DNA stretching: 0.1 M Na+
[5] = target: Core domain of bacteriophage T4 gene 32 protein (*III; protein minus both N- and C-domains) (bacteriophage T4) (UniProt P03695); experiment: cross-linking + other: MALDI mass spectrometry; MALDI mass-spectroscopic analysis of the EDC/NHS cross-linked reaction mixture of CTD and core domain
[6] = target: Core domain of bacteriophage T4 gene 32 protein (*III; protein minus both N- and C-domains) (bacteriophage T4) (UniProt P03695); experiment: cross-linking; EDC/NHS zero-length cross-linking in solution, read by SDS-PAGE; 20 uM CTD and 4 uM core domain (*III) (5:1), 40 mM MES pH 6.0, 5% glycerol, 0.5 mM EDC, 1.25 mM NHS, room temperature; also with rising p(dT)7 or NaCl

Substance | Ka [1] | Ka [2] | Ka [3] | Ka [4] | stoichiometry N [5] | percent inhibition of cross-linking at [p(dT)7]:[core domain] of 1 [6] | percent inhibition of cross-linking with 30 mM NaCl [6]
λ-DNA, double-stranded | 5950 M⁻¹ | 4390 M⁻¹ |  |  |  |  | 
λ-DNA, single-stranded (force-melted) | 99300 M⁻¹ | 102000 M⁻¹ | 1.5e+06 M⁻¹ | 33600 M⁻¹ |  |  | 
C-terminal domain (CTD) of bacteriophage T4 gene 32 protein (domain or fragment) |  |  |  |  | 1 | 50% | 50%
